# Reference: the supplement of paper PMC11246515
# ± gives the standard deviation of the averaged measurements.
# Experiment: total protein half-life in vivo (active degradation + dilution); higher = more stable protein
# [1] = E. coli NCM3722 delta-clpP delta-lon delta-hslV, growth: N-lim chemostat, doubling time 6 h
# [2] = E. coli NCM3722 delta-clpP, growth: N-lim chemostat, doubling time 6 h
# [3] = E. coli NCM3722 delta-hslV, growth: N-lim chemostat, doubling time 6 h
# [4] = E. coli NCM3722 delta-lon, growth: N-lim chemostat, doubling time 6 h
# [5] = E. coli NCM3722 delta-smpB, growth: N-lim chemostat, doubling time 6 h
# [6] = wild type E. coli NCM3722, growth: C-lim chemostat, doubling time 3 h
# [7] = wild type E. coli NCM3722, growth: C-lim chemostat, doubling time 6 h
# [8] = wild type E. coli NCM3722, growth: C-lim chemostat, doubling time 12 h
# [9] = wild type E. coli NCM3722, growth: N-lim chemostat, doubling time 6 h
# [10] = wild type E. coli NCM3722, growth: N-lim chemostat, doubling time 12 h
# [11] = wild type E. coli NCM3722, growth: P-lim chemostat, doubling time 6 h
# [12] = wild type E. coli NCM3722, growth: P-lim chemostat, doubling time 12 h
Sequence,total protein half-life in vivo [1] [h],total protein half-life in vivo [2] [h],total protein half-life in vivo [3] [h],total protein half-life in vivo [4] [h],total protein half-life in vivo [5] [h],total protein half-life in vivo [6] [h],total protein half-life in vivo [7] [h],total protein half-life in vivo [8] [h],total protein half-life in vivo [9] [h],total protein half-life in vivo [10] [h],total protein half-life in vivo [11] [h],total protein half-life in vivo [12] [h]
MTEIYEQAKHSLQGEDFSSFNYLFAVNKLLSNPVSYDLGRDLIVRALDSRERFSEHTTILKNMVRKSGLFPYLKKEFTSLTPDDLRVLELYRTPFSDGYVFHSMQFHIFDLLKSGQNVVLSAPTSMGKSAIVDSLLGMGTLKRLVLVVPTVALADETRRRLQERFGDRYQIIHHSSQVCHSDQAVYVLTQERVNERDDIVDIDLFVIDEFYKLAFRQLKSGDIDHQDERVIELNIALSKLLKVSRQFYLTGPFVNSIRGLEKLGYPHTFVSTDFNTVALDVKTFGIKANDDKAKLKALGEIAHACVDATIIYCKSPTVAGLVARELIRLGHGTPTENPHVDWVSEEFDADWDYTVALRNGIGLHFGALPRALQQYTADQFNAGKLRFLLCTSTIIEGVNTIAKNVVIYDNRDGTRSIDKFTHGNIKGRAGRMGVHFVGKIFCLEEIPEDNLNQEVDIPLGIQGIDTPINLLASVQPDHLSEFSQDRFDEVFINDRVSIDLVKKHSYFRVEQFEMLQSMFEMMDDNEFSSLVFHWTPATNFLKTFAKIIARLVPHTFSRNGVPVKPTDVMIAKLAGYLSAESYSEYLKNQIDYARQWISEGEKRTLSIALNNDLKLITNTFGYTLPKVLSLMEDVVKHHAVKRGIRSKVDYTHVKLAFESFHLPPGVNALEEIGIPIQTLHRLVDLLEFSDEADVDELSQYLRDTQDIWSRSIGYVDQMFIRRALGIRRH,6.27 ± 1.3,,,,,,,,,,,
MTEMAKGSVTHQRLIALLSQEGADFRVVTHEAVGKCEAVSEIRGTALGQGAKALVCKVKGNGVNQHVLAILAADQQADLSQLASHIGGLRASLASPAEVDELTGCVFGAIPPFSFHPKLKLVADPLLFERFDEIAFNAGMLDKSVILKTADYLRIAQPELVNFRRTA,5.051 ± 0.048,7.68,3.84 ± 0.28,5.17 ± 0.12,3.6 ± 0.12,3.19 ± 0.52,4.895 ± 0.03,8.13 ± 0.88,3.564 ± 0.0078,5.88 ± 0.3,4.71 ± 0.58,8.83 ± 0.85
MTENIHKHRILILDFGSQYTQLVARRVRELGVYCELWAWDVTEAQIRDFNPSGIILSGGPESTTEENSPRAPQYVFEAGVPVFGVCYGMQTMAMQLGGHVEASNEREFGYAQVEVVNDSALVRGIEDALTADGKPLLDVWMSHGDKVTAIPSDFITVASTESCPFAIMANEEKRFYGVQFHPEVTHTRQGMRMLERFVRDICQCEALWTPAKIIDDAVARIREQVGDDKVILGLSGGVDSSVTAMLLHRAIGKNLTCVFVDNGLLRLNEAEQVLDMFGDHFGLNIVHVPAEDRFLSALAGENDPEAKRKIIGRVFVEVFDEEALKLEDVKWLAQGTIYPDVIESAASATGKAHVIKSHHNVGGLPKEMKMGLVEPLKELFKDEVRKIGLELGLPYDMLYRHPFPGPGLGVRVLGEVKKEYCDLLRRADAIFIEELRKADLYDKVSQAFTVFLPVRSVGVMGDGRKYDWVVSLRAVETIDFMTAHWAHLPYDFLGRVSNRIINEVNGISRVVYDISGKPPATIEWE,5.07 ± 0.67,4.31 ± 0.18,4.02 ± 0.45,4.39 ± 0.049,4.28 ± 0.17,3.24 ± 0.23,5.93 ± 0.12,9.65 ± 0.23,4.17 ± 0.46,6.57 ± 0.082,6.09 ± 0.26,12.3 ± 0.98
MTEQEKTSAVVEETREAVDTTSQPVATEKKSKNNTALILSAVAIAIALAAGIGLYGWGKQQAVNQTATSDALANQLTALQKAQESQKAELEGIIKQQAAQLKQANRQQETLAKQLDEVQQKVATISGSDAKTWLLAQADFLVKLAGRKLWSDQDVTTAAALLKSADASLADMNDPSLITVRRAITDDIASLSAVSQVDYDGIILKLNQLSNQVDNLRLADNDSDGSPMDSDGEELSSSISEWRINLQKSWQNFMDNFITIRRRDDTAVPLLAPNQDIYLRENIRSRLLVAAQAVPRHQEETYRQALENVSTWVRAYYDTDDATTKAFLDEVDQLSQQNISMDLPETLQSQAMLEKLMQTRVRNLLAQPAAGTTEAKPAPAPQADTPAAAPQGE,5.965 ± 0.022,6.63 ± 1.1,6.31 ± 0.23,6.06 ± 0.28,6.54 ± 0.59,3.15 ± 0.072,5.98 ± 0.23,11.3 ± 1.5,6.09 ± 0.16,13.7 ± 0.83,6.17 ± 0.24,12.8 ± 1.5
MTEQQISRTQAWLESLRPKTLPLAFAAIIVGTALAWWQGHFDPLVALLALITAGLLQILSNLANDYGDAVKGSDKPDRIGPLRGMQKGVITQQEMKRALIITVVLICLSGLALVAVACHTLADFVGFLILGGLSIIAAITYTVGNRPYGYIGLGDISVLVFFGWLSVMGSWYLQAHTLIPALILPATACGLLATAVLNINNLRDINSDRENGKNTLVVRLGEVNARRYHACLLMGSLVCLALFNLFSLHSLWGWLFLLAAPLLVKQARYVMREMDPVAMRPMLERTVKGALLTNLLFVLGIFLSQWAA,,5.652 ± 0.0067,6.01,,,,6.18,12.6,,,,
MTEQQKLTFTALQQRLDSLMLRDRLRFSRRLHGVKKVKNPDAQQAIFQEMAKEIDQAAGKVLLREAARPEITYPDNLPVSQKKQDILEAIRDHQVVIVAGETGSGKTTQLPKICMELGRGIKGLIGHTQPRRLAARTVANRIAEELKTEPGGCIGYKVRFSDHVSDNTMVKLMTDGILLAEIQQDRLLMQYDTIIIDEAHERSLNIDFLLGYLKELLPRRPDLKIIITSATIDPERFSRHFNNAPIIEVSGRTYPVEVRYRPIVEEADDTERDQLQAIFDAVDELSQESHGDILIFMSGEREIRDTADALNKLNLRHTEILPLYARLSNSEQNRVFQSHSGRRIVLATNVAETSLTVPGIKYVIDPGTARISRYSYRTKVQRLPIEPISQASANQRKGRCGRVSEGICIRLYSEDDFLSRPEFTDPEILRTNLASVILQMTALGLGDIAAFPFVEAPDKRNIQDGVRLLEELGAITTDEQASAYKLTPLGRQLSQLPVDPRLARMVLEAQKHGCVREAMIITSALSIQDPRERPMDKQQASDEKHRRFHDKESDFLAFVNLWNYLGEQQKALSSNAFRRLCRTDYLNYLRVREWQDIYTQLRQVVKELGIPVNSEPAEYREIHIALLTGLLSHIGMKDADKQEYTGARNARFSIFPGSGLFKKPPKWVMVAELVETSRLWGRIAARIDPEWVEPVAQHLIKRTYSEPHWERAQGAVMATEKVTVYGLPIVAARKVNYSQIDPALCRELFIRHALVEGDWQTRHAFFRENLKLRAEVEELEHKSRRRDILVDDETLFEFYDQRISHDVISARHFDSWWKKVSRETPDLLNFEKSMLIKEGAEKISKLDYPNFWHQGNLKLRLSYQFEPGADADGVTVHIPLPLLNQVEESGFEWQIPGLRRELVIALIKSLPKPVRRNFVPAPNYAEAFLGRVKPLELPLLDSLERELRRMTGVTVDREDWHWDQVPDHLKITFRVVDDKNKKLKEGRSLQDLKDALKGKVQETLSAVADDGIEQSGLHIWSFGQLPESYEQKRGNYKVKAWPALVDERDSVAIKLFDNPLEQKQAMWNGLRRLLLLNIPSPIKYLHEKLPNKAKLGLYFNPYGKVLELIDDCISCGVDKLIDANGGPVWTEEGFAALHEKVRAELNDTVVDIAKQVEQILTAVFNINKRLKGRVDMTMALGLSDIKAQMGGLVYRGFVTGNGFKRLGDTLRYLQAIEKRLEKLAVDPHRDRAQMLKVENVQQAWQQWINKLPPARREDEDVKEIRWMIEELRVSYFAQQLGTPYPISDKRILQAMEQISG,6.34 ± 0.51,6.5 ± 1.2,5.99 ± 0.13,5.89 ± 0.89,5.46 ± 0.8,3.53 ± 0.13,6.34 ± 0.23,12.8 ± 1.3,5.66 ± 0.1,11.2 ± 0.78,5.71 ± 0.12,11.3 ± 0.18
MTESTSRRPAYARLLDRAVRILAVRDHSEQELRRKLAAPIMGKNGPEEIDATAEDYERVIAWCHEHGYLDDSRFVARFIASRSRKGYGPARIRQELNQKGISREATEKAMRECDIDWCALARDQATRKYGEPLPTVFSEKVKIQRFLLYRGYLMEDIQEIWRNFAD,5.54 ± 0.24,3.94,,,,,4.03,,,5.32,7.34,8.52
MTFSLFGDKFTRHSGITLLMEDLNDGLRTPGAIMLGGGNPAQIPEMQDYFQTLLTDMLESGKATDALCNYDGPQGKTELLTLLAGMLREKLGWDIEPQNIALTNGSQSAFFYLFNLFAGRRADGRVKKVLFPLAPEYIGYADAGLEEDLFVSARPNIELLPEGQFKYHVDFEHLHIGEETGMICVSRPTNPTGNVITDEELLKLDALANQHGIPLVIDNAYGVPFPGIIFSEARPLWNPNIVLCMSLSKLGLPGSRCGIIIANEKIITAITNMNGIISLAPGGIGPAMMCEMIKRNDLLRLSETVIKPFYYQRVQETIAIIRRYLPENRCLIHKPEGAIFLWLWFKDLPITTKQLYQRLKARGVLMVPGHNFFPGLDKPWPHTHQCMRMNYVPEPEKIEAGVKILAEEIERAWAESH,3.05 ± 0.33,2.32 ± 0.096,2.53 ± 0.12,2.72 ± 0.059,2.76 ± 0.11,,4.26 ± 0.073,7.25 ± 0.17,2.46 ± 0.28,3.33 ± 0.17,4.994 ± 0.0076,9.24 ± 0.47
